# Patent US20250313611A1 (VIB VZW, published 2025)
# Numbering of substitutions follows the chain as printed. Where “and” joins values, the source holds several entries; their conditions need not be identical. Identical values can stand only once. Like-named read-outs stand apart in the source and are kept apart here.
# B1: VHH R3_C4 (VHH)
# VHH: QVQLQESGGGLVQAGDSLRLSCAVSGRPFSTYTMGWFRQAPGKEREFVAAMRWSGGTIYYADSVKGRFTISRDNDKNTVNLEMNSLKPEDTAVYYCAAAYVSKANYGSLWYRASGLYDYWGQGTQVTVSS
# B2: VHH R4_DC16 (VHH)
# VHH: B1 VHH with D75A, K76Q, E82Q, L109S, A113N
# B3: VHH R3_DC9 (VHH)
# VHH: B1 VHH with A14T, A50S, I58M, A61S, E82Q, A113N
# B4: VHH R4_DC9 (VHH)
# VHH: QVQLQESGGGLVQAGDSLRLSCAASGRIFSTYTMGWFRQAPGMEREFVAAIRWSGSTVYYADSVKGRFTISRDNAKNTVYLQMNSLKPEDTAVYYCAAARVSKANYGTLWYRASGLYDYWGQGTQVTVSS
# B5: VHH R3_DC2 (VHH)
# VHH: B1 VHH with A14T, A50S, I58K, A61S, T69S, K76Q, E82Q, A113N
# B6: VHH R3_DC20 (VHH)
# VHH: B1 VHH with D75A, K76Q, E82Q, K87E, A113N
# B7: VHH R4_DC20 (VHH)
# VHH: B1 VHH with A14T, A50S, I58M, Y59N, K76Q, E82Q, A113N
# B8: VHH R4_DC13 (VHH)
# VHH: B1 VHH with A14T, A50S, I58V, A61S, E82Q, S85N, L109F, A113N, G115D
# B9: VHH R4_DC6 (VHH)
# VHH: QVQLQESGGGLVQAGDSLRLSCAASGRILSTFTMGWFRQAPGKEREFVAAMRWNGGTKNYADSVKGRFTISRDNANSVVYLQMNSTKPEDTAVYYCAAAYVSKANYGSLWYRTPSLYDYWGQGTQVTVSS
# B10: VHH R3_DC23 (VHH)
# VHH: QVQLQESGGGLVQAGDSLTLSCAVSGRIFSTYTMGWFRQAPGKEREFVAAVRWGAGTIYYADSMKGRFTISRDSAKNTVDLQMNSTKPEDTAVYYCGAAYVSKANYGSLWYQDSRRYDYWGQGTQVTVSS
# B11: R3_DC23-Fc(YTE) (Fc fusion)
# chain: DVQLVESGGGLVQPGGSLRLSCAVSGRIFSTYTMGWFRQAPGKEREFVAAVRWGAGTIYYADSVKGRFTISRDNAKNTVYLQMNSLRPEDTAVYYCGAAYVSKANYGSLWYQDSRRYDYWGQGTLVTVSSGGGGSGGGGSDKTHTCPPCPAPELLGGPSVFLFPPKPKDTLYITREPEVTCVVVDVSHEDPEVKFNWYVDGVEVHNAKTKPREEQYNSTYRVVSVLTVLHQDWLNGKEYKCKVSNKALPAPIEKTISKAKGQPREPQVYTLPPSRDELTKNQVSLTCLVKGFYPSDIAVEWESNGQPENNYKTTPPVLDSDGSFFLYSKLTVDKSRWQQGNVFSCSVMHEALHNHYTQKSLSLSPG
# Legend:
# [1] = target: T1, SARS-COV-2 spike (614G-del18) (SARS-CoV-2, UniProt P0DTC2 14-1255); assay: flow cytometry, transfected HEK cells, MFI GFP+/GFP- cells [1/3]
# [2] = target: T1, SARS-COV-2 spike (614G-del18); assay: flow cytometry, transfected HEK cells, MFI GFP+/GFP- cells [3/3]
# [3] = target: T1, SARS-COV-2 spike (614G-del18); assay: cell-based or functional assay
# [4] = target: T1, SARS-COV-2 spike (614G-del18); assay: flow cytometry, transfected HEK cells, MFI GFP+/GFP- cells [2/3]
# [5] = target: T1, SARS-COV-2 spike (614G-del18)
# [6] = target: SARS-COV-2 spike protein (Wuhan) expressed on transfected cells (SARS-CoV-2 (Wuhan), UniProt P0DTC2 14-1273)
# [7] = target: T1, SARS-COV-2 spike (614G-del18); remark: listed apart in the source
# [8] = target: SARS-COV-2 Omicron BA.2.75 spike (pCG1, del18) (SARS-CoV-2 Omicron BA.2.75, UniProt P0DTC2 14-1255); assay: cell-based or functional assay
# [9] = target: SARS-COV-2 Omicron BQ.1.1 spike (pCG1, del18) (SARS-CoV-2 Omicron BQ.1.1, UniProt P0DTC2 14-1255); assay: cell-based or functional assay
# [10] = target: SARS-COV-2 Omicron BA.4.6 spike (pCG1, del18) (SARS-CoV-2 Omicron BA.4.6, UniProt P0DTC2 14-1255); assay: cell-based or functional assay
# [11] = target: SARS-COV-2 Omicron XBB spike (pCG1, del18) (SARS-CoV-2 Omicron XBB, UniProt P0DTC2 14-1255); assay: cell-based or functional assay
# [12] = target: SARS-COV-2 Omicron BA.2 spike (pCG1, del18) (SARS-CoV-2 Omicron BA.2, UniProt P0DTC2 14-1255); assay: cell-based or functional assay
# [13] = target: SARS-COV-2 Omicron BA.1 spike (pCG1, del18) (SARS-CoV-2 Omicron BA.1, UniProt P0DTC2 14-1255); assay: cell-based or functional assay
binder,measurement,setting,value
B1,binding result,[1],binds
B2,binding result,[2],binds
B3,binding result,[1],binds
B4,"IC50, neutralisation of VSV pseudotyped with spike, Vero E6 cells",[3],~100 ng/mL
same,"IC50, neutralisation of VSV spike pseudotypes",[3],68.9 ng/ml and 4680 µM
B5,binding result,[1],binds
B6,binding result,[1],binds
B7,binding result,[2],binds
B8,binding result,[4],binds
B9,EC50 (read off the curve),[5],~2 ng/mL
B10,EC50 (read off the curve),[6],~10 ng/mL
same,"IC50, neutralisation of VSV pseudotyped with spike, Vero E6 cells",[3],< 1 ng/mL
same,"IC50, neutralisation of VSV spike pseudotypes",[3],1.2 ng/ml and 80 µM and ~1 ng/ml
same,EC50 (read off the curve),[5],~10 ng/mL
B11,EC50 (read off the curve),[7],~100 ng/mL
same,"IC50, neutralisation of VSV pseudotyped with spike",[8],~1 ng/mL
same,"IC50, neutralisation of VSV pseudotyped with spike",[9],~1 ng/mL
same,"IC50, neutralisation of VSV pseudotyped with spike",[10],~1 ng/mL
same,"IC50, neutralisation of VSV pseudotyped with spike",[11],~1 ng/mL
same,"EC50, neutralisation of VSV pseudotyped with spike",[12],0.35 ng/mL
same,"IC50, neutralisation of VSV pseudotyped with spike",[12],~1 ng/mL
same,"EC50, neutralisation of VSV pseudotyped with spike",[13],1 ng/mL
same,"IC50, neutralisation of VSV pseudotyped with spike",[13],~1 ng/mL
same,"EC50, neutralisation of VSV pseudotyped with spike",[3],1 ng/mL
